We go through one substance from PMC9817892.

In experiment [1] the target is p63 (UniProt Q9H3D4). Description: co-immunoprecipitation from metastatic tissue. Particulars: reference: Nur77 wild type; sites S351.
Experiment [2] deals with p63 (UniProt Q9H3D4). Description: co-immunoprecipitation, Western blot. Particulars: reference: Nur77 wild type; sites S351.

Turning to Nur77 (from UniProt P22736) Nur77 S351A, the “binding against the reference” value is reported as “weaker” with p63 [1] and “lost” in the experiment with p63 [2].
